The nature of this test: Monoterpene synthase assay and product identification with extracts of E. coli expressing Grand fir cDNA clones (Example 3). In kind it is biochemical. The procedure: For expression, bacterial strains E. coil XLOLR/pAG3.18, E. coil XLOLR/pAG3.48, E. coli XL1-Blue/pGAG2.2, E. coli XL1-Blue/pGAG3.18, and E. coil BL21(DE3)/pSBAG10were grown to A600=0.5 at 37° C. in 5 ml of LB medium (Sambrock, J., Fritsch, E. F., and Maniatis, T. (1989) Molecular Cloning: A Laboratory Manual, 2d Ed., Cold Spring Harbor Laboratory, Cold Spring Harbor, N.Y.) supplemented with 100 μg ampicillin/ml or 30 μg kanamycin/ml as determined by the vector. Cultures were then induced by addition of 1 mM isopropyl-1-thio-β-D-galactopyranoside and grown for another 12 h at 20° C. Cells were harvested by centrifugation (2000×g, 10 min) and resuspended in either 1 ml monoterpene synthase assay buffer [50 mM Tris/HCl (pH 7.5), 500 mM KCl, 1 mM MnCl2, 5 mM dithiothreitol, 0.05% (w/v) NaHSO3 and 10% (v/v) glycerol], 1 ml sesquiterpene synthase assay buffer [10 mM dibasic potassium phosphate, 1.8 mM monobasic potassium phosphate (pH 7.3), 140 mM NaCl, 10 mM MgCl2, 5 mM dithiothreitol, 0.05% (w/v) NaHSO3 and 10% (v/v) glycerol], or 1 ml diterpene synthase assay buffer [30 mM Hepes (N-2-hydroxyethylpiperazine-N-′2-ethanesulfonic acid, pH 7.2), 7.5 mM MgCl2, 5 mM dithiothreitol, 10 µM MnCl2, 0.05% (w/v) NaHSO3 and 10% (v/v) glycerol].
Cells were disrupted by sonication (Braun-Sonic 2000 with microprobe at maximum power for 15 seconds at 0-4° C.), the homogenates were cleared by centrifugation (18,000×g, 10 min), and 1 ml of the resulting supernatant was assayed for monoterpene synthase activity with 2.5 μM of [1-^3H]geranyl diphosphate, for sesquiterpene synthase activity with 3.5 μM [1-^3H]farnesyl diphosphate, or for diterpene synthase activity with 5 μM [1- ^3H]geranylgeranyl diphosphate following standard protocols (Croteau, R., and Cane, D. E. (1985) Methods Enzymol. 110:383-405; LaFever, R. E., Stofer Vogel, B., and Croteau, R. (1994) Arch. Biochem. Biophys. 313:139-149; Dehal, S. S., and Croteau, R. (1988) Arch. Biochem. Biophys. 261:346-356). In the case of the monoterpene synthase and sesquiterpene synthase assays, the incubation mixture was overlaid with 1 ml pentane to trap volatile products. In all cases, after incubation at 31° C. for 2 h, the reaction mixture was extracted with pentane (3×1 ml) and the combined extract was passed through a 1.5 ml column of anhydrous MgSO4 and silica gel (Mallinckrodt 60 Å) to provide the terpene hydrocarbon fraction free of oxygenated metabolites. The columns were subsequently eluted with 3×1 ml of ether to collect any oxygenated products, and an aliquot of each fraction was taken for liquid scintillation counting to determine conversion rate.
Product Identification—To obtain sufficient product for analysis by radio-GLC (gas liquid chromatography), chiral capillary GLC and GLC-MS (mass spectrum/spectrometry), preparative-scale enzyme incubations were carried out. Thus, the enzyme was prepared from 50 ml of cultured bacterial cells by extraction with 3 ml of assay buffer as above, and the extracts were incubated with excess substrate overnight at 31° C. The hydrocarbon fraction was isolated by elution through MgSO4-silica gel as before, and the pentane eluate was concentrated for evaluation by capillary radio-GLC as described (Croteau, R., and Satterwhite, D. M. (1990) J. Chromatogr. 500:349-354), by chiral column capillary GLC (Lewinsohn, E., Savage, T. J., Gijzen, M., and Croteau, R. (1993) Phytochem. Anal. 4:220-225), and by combined GLC-MS [Hewlett-Packard 6890 GC-MSD with cool (40° C.) on-column injection, detection via electron impact ionization (70 eV), He carrier at 0.7 psi., column:0.25 mm i.d.×30 m fused silica with 0.25 μm film of 5MS (Hewlett-Packard) programmed from 35° C. (5 min hold) to 230° C. at 5° C./min].

B1: AG3.18: recombinant (−)-pinene synthase from Grand fir encoded by cDNA clone AG3.18 (SEQ ID NO:3; protein SEQ ID NO:4) (protein, listed as Abies grandis)
chain: MALVSTAPLASKSCLHKSLISSTHELKALSRTIPALGMSRRGKSITPSISMSSTTVVTDDGVRRRMGDFHSNLWDDDVIQSLPTAYEEKSYLERAEKLIGEVKNMFNSMSLEDGELMSPLNDLIQRLWIVDSLERLGIHRHFKDEIKSALDYVYSYWGENGIGCGRESVVTDLNSTALGLRTLRLHGYPVSSDVFKAFKGQNGQFSCSENIQTDEEIRGVLNLFRASLIAFPGEKIMDEAEIFSTKYLKEALQKIPVSSLSREIGDVLEYGWHTYLPRLEARNYIQVFGQDTENTKSYVKSKKLLELAKLEFNIFQSLQKRELESLVRWWKESGFPEMTFCRHRHVEYYTLASCIAFEPQHSGFRLGFAKTCHLITVLDDMYDTFGTVDELELFTATMKRWDPSSIDCLPEYMKGVYIAVYDTVNEMAREAEEAQGRDTLTYAREAWEAYIDSYMQEARWIATGYLPSFDEYYENGKVSCGHRISALQPILTMDIPFPDHILKEVDFPSKLNDLACAILRLRGDTRCYKADRARGEEASSISCYMKDNPGVSEEDALDHINAMISDVIKGLNWELLKPDINVPISAKKHAFDIARAFHYGYKYRDGYSVANVETKSLVTRTLLESVPL
As for B1, for the setting “cell-free extract of induced E. coli, tritium labeled substrates”, the “prenyl diphosphate substrate utilized (geranyl, farnesyl, geranylgeranyl diphosphate tested)” value is reported as “only geranyl diphosphate was utilized”. In addition, for the setting “cell-free extracts of E. coli”, the “α-pinene share of product mixture from geranyl diphosphate” value was 42% and the “β-pinene share of product mixture from geranyl diphosphate” value worked out at 58%. Besides, the “monoterpene products formed from geranyl diphosphate” value (radio-GLC, GLC-MS, chiral GLC) is “No other monoterpene co-products were detected”.

These data come from US6429014B1, “Monoterpene synthases from grand fir (Abies grandis)” (Washington State University Research Foundation, priority 1997, dated 2002).
